B1: M365I: MxPPO (SEQ ID NO: 3) variant (protein)
chain: MHHMPRTTGMNVAVVGGGISGLAVAHHLRSRGTDAVLLESSARLGGAVGTHALAGYLVEQGPNSFLDREPATRALAAALNLEGRIRAADPAAKRRYVYTRGRLRSVPASPPAFLASDILPLGARLRVAGELFSRRAPEGVDESLAAFGRRHLGHRATQVLLDAVQTGIYAGDVEQLSVAATFPMLVKMEREHRSLILGAIRAQKAQRQAALPAGTAPKLSGALSTFDGGLQVLIDALAASLGDAAHVGARVEGLAREDGGWRLIIEEHGRRAELSVAQVVLAAPAHATAKLLRPLDDALAALVAGIAYAPIAVVHLGFDAGTLPAPDGFGFLVPAEEQRRMLGAIHASTTFPFRAEGGRVLYSCIVGGARQPGLVEQDEDALAALAREELKALAGVTARPSFTRVFRWPLGIPQYNLGHLERVAAIDAALQRLPGLHLIGNAYKGVGLNDCIRNAAQLADALVAGNTSHAP
modifications: Synthetic (Protoporphyrinogen IX oxidase (MxPPO) of Myxococcus xanthus)
B2: M365T: MxPPO (SEQ ID NO: 3) variant (protein)
chain: MHHMPRTTGMNVAVVGGGISGLAVAHHLRSRGTDAVLLESSARLGGAVGTHALAGYLVEQGPNSFLDREPATRALAAALNLEGRIRAADPAAKRRYVYTRGRLRSVPASPPAFLASDILPLGARLRVAGELFSRRAPEGVDESLAAFGRRHLGHRATQVLLDAVQTGIYAGDVEQLSVAATFPMLVKMEREHRSLILGAIRAQKAQRQAALPAGTAPKLSGALSTFDGGLQVLIDALAASLGDAAHVGARVEGLAREDGGWRLIIEEHGRRAELSVAQVVLAAPAHATAKLLRPLDDALAALVAGIAYAPIAVVHLGFDAGTLPAPDGFGFLVPAEEQRRMLGAIHASTTFPFRAEGGRVLYSCTVGGARQPGLVEQDEDALAALAREELKALAGVTARPSFTRVFRWPLGIPQYNLGHLERVAAIDAALQRLPGLHLIGNAYKGVGLNDCIRNAAQLADALVAGNTSHAP
modifications: Synthetic (Protoporphyrinogen IX oxidase (MxPPO) of Myxococcus xanthus)
B3: R95A + M365I: MxPPO (SEQ ID NO: 3) variant (protein)
chain: MHHMPRTTGMNVAVVGGGISGLAVAHHLRSRGTDAVLLESSARLGGAVGTHALAGYLVEQGPNSFLDREPATRALAAALNLEGRIRAADPAAKRAYVYTRGRLRSVPASPPAFLASDILPLGARLRVAGELFSRRAPEGVDESLAAFGRRHLGHRATQVLLDAVQTGIYAGDVEQLSVAATFPMLVKMEREHRSLILGAIRAQKAQRQAALPAGTAPKLSGALSTFDGGLQVLIDALAASLGDAAHVGARVEGLAREDGGWRLIIEEHGRRAELSVAQVVLAAPAHATAKLLRPLDDALAALVAGIAYAPIAVVHLGFDAGTLPAPDGFGFLVPAEEQRRMLGAIHASTTFPFRAEGGRVLYSCIVGGARQPGLVEQDEDALAALAREELKALAGVTARPSFTRVFRWPLGIPQYNLGHLERVAAIDAALQRLPGLHLIGNAYKGVGLNDCIRNAAQLADALVAGNTSHAP
modifications: Synthetic (Protoporphyrinogen IX oxidase (MxPPO) of Myxococcus xanthus)
B4: M365V: MxPPO (SEQ ID NO: 3) variant (protein)
chain: MHHMPRTTGMNVAVVGGGISGLAVAHHLRSRGTDAVLLESSARLGGAVGTHALAGYLVEQGPNSFLDREPATRALAAALNLEGRIRAADPAAKRRYVYTRGRLRSVPASPPAFLASDILPLGARLRVAGELFSRRAPEGVDESLAAFGRRHLGHRATQVLLDAVQTGIYAGDVEQLSVAATFPMLVKMEREHRSLILGAIRAQKAQRQAALPAGTAPKLSGALSTFDGGLQVLIDALAASLGDAAHVGARVEGLAREDGGWRLIIEEHGRRAELSVAQVVLAAPAHATAKLLRPLDDALAALVAGIAYAPIAVVHLGFDAGTLPAPDGFGFLVPAEEQRRMLGAIHASTTFPFRAEGGRVLYSCVVGGARQPGLVEQDEDALAALAREELKALAGVTARPSFTRVFRWPLGIPQYNLGHLERVAAIDAALQRLPGLHLIGNAYKGVGLNDCIRNAAQLADALVAGNTSHAP
modifications: Synthetic (Protoporphyrinogen IX oxidase (MxPPO) of Myxococcus xanthus)

What follows are molecules tested on MxPPO (assay: PPO enzyme activity of purified MBP-fused MxPPO wild type and variants). Conditions: PPO enzyme activity of purified MxPPO protein, relative to wild type.
Type: biochemical, Myxococcus xanthus
Experimental: Thus, PPO proteins of wild type and variants were expressed as fused to MBP and were used for experiments.
The following process for purification of PPO protein was performed in a 4° C. cold room. […] The column was washed with 3 column volumes of buffer and the presence of protein in the washing solution was examined. When the protein was no longer detected, the washing procedure was terminated. Then, the MBP-PPO protein was eluted with approximately 2 column volumes of buffer containing 20 mM maltose. The protein concentration of each eluent was determined and the elution was stopped when the protein was no longer detected. Ten microliter of each fraction was investigated for protein quantification and SDS-PAGE analysis. The highly pure fractions of PPO protein variants were used for the enzyme assay.
Since protoporphyrinogen IX, a substrate of PPO protein, was not commercially available, it was chemically synthesized in the laboratory. Overall process was performed in dark under nitrogen stream. […] of protoporphyrin IX was dissolved in 20 ml of 20% (v/v) EtOH, and stirred under dark condition for 30 minutes. The obtained protoporphyrin IX solution was put into a 15 ml screw tube in an amount of 800 μl, and flushed with nitrogen gas for 5 minutes. To this, 1.5 g of sodium amalgam was added and vigorously shaken for 2 minutes. The lid was opened to exhaust hydrogen gas in the tube. Thereafter, the lid was closed and incubated for 3 minutes. The protoporphyrinogen IX solution was filtered using syringe and cellulose membrane filter. To 600 μl of the obtained protoporphyrinogen IX solution, approximately 300 μl of 2M MOPS [3-(N-morpholino) propanesulfonic acid] was added to adjust pH to 8.0. To determine the enzyme activity of PPO protein, a reaction mixture was prepared with the following composition (based on 10 ml): 50 mM Tris-Cl (pH 8.0); 50 mM NaCl; 0.04% (v/v) Tween 20; 40 mM glucose (0.072 g); 5 units glucose oxidase (16.6 mg); and 10 units catalase (1 μl).
Hundred and eighty microliters of a reaction mixture […] were placed in 96 well plates and 20 μl of purified PPO proteins were added. After 50 μl of the mineral oil was layered, the reaction was initiated by adding the substrate, protoporphyrinogen IX solution, to a final concentration of 50 μM. The reaction proceeded at room temperature for 30 min and the fluorescence of protoporphyrin IX was measured using Microplate reader (Sense, Hidex) (excitation: 405 nm; emission: 633 nm). To calculate the PPO enzyme activity, the protoporphyrinogen IX solution was kept open in the air overnight to oxidize the solution. To this, 2.7 N HCl was added, and the absorbance at 408 nm was measured. A standard curve was generated using standard protoporphyrin IX, and PPO activity was measured by calibration of protoporphyrin IX using the standard curve of protoporphyrin IX.
Activities of variants were presented relatively compared to that of wild type.

Point of comparison: B3, “Activity (%)” value 42%. Against it:
- B1 — higher, 82%
- B2 — higher, 52%
- B4 — higher, 77%
